Assay [1] deals with T1, human ASC (apoptosis associated speck-like protein containing a caspase-recruitment domain) (human, UniProt Q9ULZ3 1-195).
T1 construct: recombinant hASC in ELISA and SPR; endogenous ASC (cytoplasmic or specks) in Western blot and immunofluorescence; also called hASC; PYCARD
Description: ELISA, coated hASC.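 Note: antibody binding to plate-coated recombinant human ASC, read as phosphatase substrate absorbance, EC50 from four-parameter variable-slope fit.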

Assay [2] has as its target T2, PYD domain of human ASC (human, UniProt Q9ULZ3 1-91, limits assumed).
T2 construct: biotinylated in BLI; His/MBP-tagged in the alanine ELISA; also called hPYD; human PYD
Description: ELISA, coated hPYD.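 Note: monoclonal antibody binding to plate-coated human ASC PYD measured by ELISA, with a phosphatase substrate absorbance read-out and EC50 from a variable slope curve fit.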

Assay [3] has as its target T3, mouse ASC (mouse, UniProt Q9EPB4 1-193).
T3 construct: recombinant mASC in ELISA and SPR; endogenous ASC of J774.A1 cells in Western blot and immunofluorescence; also called mASC
T3 sequence: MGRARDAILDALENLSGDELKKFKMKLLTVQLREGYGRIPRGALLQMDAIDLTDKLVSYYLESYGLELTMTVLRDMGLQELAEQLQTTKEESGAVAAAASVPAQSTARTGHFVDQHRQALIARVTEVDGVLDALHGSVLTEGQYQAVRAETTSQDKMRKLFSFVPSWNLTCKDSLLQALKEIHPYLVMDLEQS
Description: ELISA, coated mASC.

In assay [4] the target is T4, CARD domain of human ASC (human, UniProt Q9ULZ3 107-195).
T4 construct: biotinylated in BLI; also called hCARD; human CARD
T4 sequence: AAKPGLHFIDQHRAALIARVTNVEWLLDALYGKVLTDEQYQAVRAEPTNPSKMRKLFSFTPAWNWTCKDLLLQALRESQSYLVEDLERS
Kind of assay: ELISA, coated hCARD.

For assay [5], the target named is T1, human ASC (apoptosis associated …). Kind of assay: cell-based or functional assay.
Assay [6] deals with T3, mouse ASC. Kind of assay: cell-based or functional assay.
For assay [7], the target named is T3, mouse ASC. Description: cell-based or functional assay. The source holds these as a separate data set.
Assay [8] has as its target T3, mouse ASC. Kind of assay: SPR affinity mode, mAb captured.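 Note: Single-cycle SPR kinetics with mAbs captured on goat anti-mouse antibody, double-referenced against blank flow cell and buffer cycle, fitted by a 1:1 kinetic model.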
Assay [9] has as its target T1, human ASC (apoptosis associated …). Description: SPR affinity mode, steady-state fit, apparent KD.
Assay [10] has the same target. Kind of assay: cell-based or functional assay. The source holds these as a separate data set.
For assay [11] the target is unchanged. Kind of assay: SPR affinity mode, mAb captured.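 Note: Single-cycle SPR kinetics with mAbs captured on goat anti-mouse antibody, double-referenced against blank flow cell and buffer cycle, fitted by a 1:1 kinetic model.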
The target is the same in assay [12]. Kind of assay: SPR avidity mode, ASC immobilized.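 Note: Single-cycle SPR kinetics on Biacore T200, antibodies injected at 1.2–100 nM (3-fold steps), 300 s association, 900 s dissociation, double-referenced, 1:1 kinetic model fit.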
The target of assay [13] is T2, PYD domain of human ASC. Description: BLI binning on PYD, competitor 22D3A6-AB1.
The target of assay [14] is T2, PYD domain of human ASC. Description: BLI binning on PYD, competitor 23E5F7-AB2.
Assay [15] addresses T2, PYD domain of human ASC. Kind of assay: BLI binning on PYD, competitor 26A1G2-AB1.
For assay [16], the target named is T2, PYD domain of human ASC. Kind of assay: BLI binning on PYD, competitor 31F10C5-AB1.
Assay [17] deals with T2, PYD domain of human ASC. Kind of assay: BLI binning on PYD, competitor 401H9B7-AB1.
The target of assay [18] is T2, PYD domain of human ASC. Kind of assay: BLI binning on PYD, competitor 416E6G4-AB1.
Assay [19] concerns the target T2, PYD domain of human ASC. Description: BLI binning on PYD, competitor 2610H7D3-AB1.
Assay [20] deals with T2, PYD domain of human ASC. Description: BLI binning on PYD, competitor 2617C3A8-AB1.
The target in assay [21] is T2, PYD domain of human ASC. Description: BLI binning on PYD, competitor 2626B9D3-AB1.
The target of assay [22] is T4, CARD domain of human ASC. Description: sandwich ELISA on MBP-tagged protein captured by anti-MBP antibody, signal as % of hPYD-WT.
The target in assay [23] is T3, mouse ASC. Description: SPR avidity mode, ASC immobilized.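 Note: Single-cycle SPR kinetics on Biacore T200, antibodies injected at 1.2–100 nM (3-fold steps), 300 s association, 900 s dissociation, double-referenced, 1:1 kinetic model fit.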
The target of assay [24] is T3, mouse ASC. Description: ELISA, coated mASC; ELISA on mASC protein.
In assay [25] the target is T3, mouse ASC. Description: SPR affinity mode, mAb captured; SPR affinity mode, mAb captured by Fc, mASC in solution.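 Note: Single-cycle SPR kinetics with mAbs captured on goat anti-mouse antibody, double-referenced against blank flow cell and buffer cycle, fitted by a 1:1 kinetic model.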
For assay [26], the target named is T3, mouse ASC. Kind of assay: SPR avidity mode, ASC immobilized; SPR avidity mode, mASC covalently immobilized, mAb as analyte.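 Note: Single-cycle SPR kinetics on Biacore T200, antibodies injected at 1.2–100 nM (3-fold steps), 300 s association, 900 s dissociation, double-referenced, 1:1 kinetic model fit.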
Assay [27] has as its target T4, CARD domain of human ASC. Kind of assay: sandwich ELISA on MBP-tagged protein captured by anti-MBP antibody, signal as % of hPYD-WT. This is another data set of the same source.

A value given as a limit tells only on which side of the number the result lay.

T2 sequence (Q9ULZ3 1-91 limits assumed): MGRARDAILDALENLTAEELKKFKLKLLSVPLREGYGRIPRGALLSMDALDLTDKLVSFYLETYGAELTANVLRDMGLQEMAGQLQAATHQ

B1: ACI-8016-23E5F7-AB1 (antibody, V domains shown)
VH: QVQLQQSEAELARPGASVKLSCKASGYTFTSYGIFWVKQRTGQGLEWIGEIYPRSGNTYYNENFRDKATLTADKSSSTAYMELRSLTSEDSAVYFCARQRDDYWGQGTTLTVSS
VL: QIVLTQSPAIMSASPGEKVTITCSVSSSVSYMYWFQQKPGTSPKVWIYSTSNLASGVPARFSGRGSGTSYSLTISRMEAEDAATYYCQQRSSYPFTFGSGTKLEIK
notes: also called 936.23E5F7
Regarding B1, the concentration giving a half-maximal response (EC50) in assay [1] is 120 pM; with PYD domain of human ASC [2] it was 130 pM; with mouse ASC [3], 150 pM. Further, in the assay with CARD domain of human ASC [4], the binding result is on record as “no binding”. Moreover, the “Human ASC polymerization assay, IC50” value in [5] worked out at 5800 pM. The “Mouse ASC polymerization assay, IC50” value with mouse ASC [6] is 21000 pM. Moreover, the “% IL-1β inhibition, mouse primary microglia, 420 nM mAb” value with mouse ASC [7] worked out at 69.4%. Moreover, the Kd turned out to be 10400 pM in the assay with mouse ASC [8] and 27100 pM in assay [9]. Besides, in the assay with mouse ASC [8], the koff was determined as 0.00264 s⁻¹. Moreover, the kon in the assay with mouse ASC [8] amounted to 261000 M⁻¹ s⁻¹.

B2: ACI-8016-401H9B7-AB1 (antibody, V domains shown)
VH: QIQLVQSGPELKKPGETVKISCKASGYTFTKYGMNWVKQAPGKGLKRMGWINTYTGEPTYSDDFKGRFAFSLETSASTAYLQINNLKNDDTATYFCARLGYANSFDSWGQGTTLTVSS
VL: DIQMTQSPASLSATVGETVTITCRASENIYTYLAWYQQKQGKSPQLLVHNANTLVEGVPSRFSGSGSGTQFSLKINSLEPEDFGNYYCQYHYGSPYTFGGGTKLEIK
Turning to B2, the EC50 worked out at 100 pM in assay [1] and 60 pM in the assay with PYD domain of human ASC [2]. In addition, in assay [5], the “Human ASC polymerization assay, IC50” value was 3100 pM. For the same molecule, the “IL-1β release, human monocytic cell line, IC50” value in assay [10] came to 6940 pM. The Kd in assay [11] and in assay [12] was < 10 pM each time. The koff is < 1e-05 s⁻¹ in assay [11] and 2.3e-07 s⁻¹ in assay [12]. Moreover, the on-rate (kon) in assay [11] worked out at 96000 M⁻¹ s⁻¹; in assay [12] it was 74000 M⁻¹ s⁻¹. Also, the normalized binding response with PYD domain of human ASC [13] stood at 90%; in the assay with PYD domain of human ASC [14] it was 83%; in the assay with PYD domain of human ASC [15], 24%; with PYD domain of human ASC [16], 95%; in the assay with PYD domain of human ASC [17] it was 3%; with PYD domain of human ASC [18] it was 47%. For the same molecule, the normalized binding response in the assay with PYD domain of human ASC [19] is 108%; with PYD domain of human ASC [20], 112%; with PYD domain of human ASC [21], 3%. In the assay with CARD domain of human ASC [22], the binding result is listed as “no binding”.

B3: ACI-8019-2314F6H11-AB1 (antibody, V domains shown)
VH: QVQVQQSGADLARPGASVKLSCKASGYTFTNYGINWVKQRTGQGLEWIGEIYPKNIDIYYNEKFKGKATLTADKSSSTAYMELRSLTSEDSAVYFCGRSSFGFSGNYAMDYWGQGTSVTVSS
VL: DVVMTQTPLSLPVSLGDQASISCRSSQNLIHSNGITYLHWYLQKPGQSPKLLIYKVSNRFSGVPHRFSGSGSGTDFTLKISRVEAEDLGVYFCSQSTHVPWTFGGGTKLEIK
On to B3, for which the midpoint of the response in assay [1], the EC50, lay at 100 pM. Further, the EC50 with mouse ASC [3] turned out to be 200 pM. In [12], this molecule registered a Kd of 910 pM, a koff of 8e-05 s⁻¹ and an association rate constant (kon) of 88000 M⁻¹ s⁻¹. Moreover, the Kd with mouse ASC [23] is 16100 pM.

B4: ACI-8016-416E6G4-AB1 (antibody, V domains shown)
VH: QVQLKQSGPGLVQPSQSLSITCTVSGISLSSYGLHWVRQSPGKGLEWLGVIWSGGNTDYSATFISRLSISKDNSKSQVFFKMDSLQVDDTAIYYCARNEVWGQGTSVTVSS
VL: not shown
Consider B4, for which the 50% effective concentration (EC50) (in assay [1]; in the assay with PYD domain of human ASC [2]; with mouse ASC [24]) was 70 pM each time. Also, the binding result with CARD domain of human ASC [4] was “no binding”. Moreover, the Kd in assay [11] amounted to 14900 pM; with mouse ASC [8], 14500 pM; in assay [12], 850 pM; with mouse ASC [26], 4880 pM. The koff worked out at 0.0025 s⁻¹ in [11], 0.00053 s⁻¹ with mouse ASC [8], 2.7e-05 s⁻¹ in [12] and 0.00013 s⁻¹ in the assay with mouse ASC [26]. For the same molecule, the kon in assay [11] was 280000 M⁻¹ s⁻¹; in assay [12], 39000 M⁻¹ s⁻¹; with mouse ASC [25] it was 34000 M⁻¹ s⁻¹; with mouse ASC [26], 35000 M⁻¹ s⁻¹.

B5: ACI-8016-2610H7D3-AB1 (antibody, V domains shown)
VH: QVQLQQSGVELARPGASVKLSCKASGFSFTSYGISWVKQKTGQGLEWIGQIYLRSSNTYYSEKFKDRATLTADKSSSTVYMELRSLTSEDSAVYFCARYYGSSSDYWGQGTTLTVSS
VL: DIQMNQSPSSLSASLGDTITINCHASQNINVWLSWYQQKPGNIPKVLINQASNLQTDVPTRFSGSGSGTDFKLIISRLQSEDIATYYCQQGQSYPWTFGGGTKLEIK
B5: the EC50 in assay [1] is 190 pM; in the assay with PYD domain of human ASC [2], 160 pM; with mouse ASC [3], 270 pM. Further, in assay [5], the “Human ASC polymerization assay, IC50” value was found to be 10100 pM. In addition, in the assay with mouse ASC [6], the “Mouse ASC polymerization assay, IC50” value was determined as 60400 pM. For the same molecule, the “IL-1β release, human monocytic cell line, IC50” value in assay [10] is 25200 pM. Moreover, the “% IL-1β inhibition, mouse primary microglia, 420 nM mAb” value with mouse ASC [7] stood at 87.3%. The Kd came to 270 pM in assay [11] and 410 pM with mouse ASC [8]. The dissociation rate constant (koff) was determined as 0.000201 s⁻¹ in assay [11] and 0.000339 s⁻¹ with mouse ASC [8]. Moreover, the on-rate constant (kon) in assay [11] turned out to be 747000 M⁻¹ s⁻¹; in the assay with mouse ASC [8], 831000 M⁻¹ s⁻¹. Further, the normalized binding response with PYD domain of human ASC [13] was 2%; with PYD domain of human ASC [14], 0%; in the assay with PYD domain of human ASC [15], 1%; with PYD domain of human ASC [16], 2%; with PYD domain of human ASC [17], 73%; with PYD domain of human ASC [18], 6%. Further, the normalized binding response was found to be 1% with PYD domain of human ASC [19], 0% in the assay with PYD domain of human ASC [20] and 80% with PYD domain of human ASC [21]. Moreover, the binding result with CARD domain of human ASC [27] is on record as “no binding”.

(Values after patent publication US20250320284A1 (AC IMMUNE, published 2025).)
